Molecular target: SARS-CoV-2 prototype (PT) S NTD, human Fc-tagged (SARS-CoV-2)
Assay: SPR

B1: nanobody N235, His-tagged (VHH)
VHH: QVQLQESGGGLVQPGGSLRLSCAASGLIISRYDMSWYRQAPGKERELVATTPIPAARPQYADSVKGRFTISRDNAKNTVSLQMNSLKPEDTAVYYCNLGPESQDHNYNYWGQGTQVTVSS
koff: 0.00024 s⁻¹
